According to paper PMC12903857:

Columns and labels:
15-mer A-RAF peptide [1] = assay: fluorescence polarisation; fluorescence anisotropy; Kd of the 15-mer peptides, told apart by the paper from the appKd in the presence of DMSO
15-mer A-RAF peptide [2] = assay: fluorescence polarisation; fluorescence anisotropy protein titration: 14-3-3σ titrated into 10 nM labeled peptide in the presence of DMSO; apparent
15-mer B-RAF peptide = assay: fluorescence polarisation; fluorescence anisotropy protein titration: 14-3-3σ titrated into 10 nM labeled peptide in the presence of a saturating concentration (100 μM) of a covalent compound, which is named in the quantity of each row; apparent

Kd (15-mer A-RAF peptide [1]): 8 µM
Kd (15-mer A-RAF peptide [2]): 3 µM
fold stabilization with 22 (against DMSO) (15-mer B-RAF peptide): 448 fold
fold stabilization with 23 (against DMSO) (15-mer B-RAF peptide): 448 fold
Substance: 14-3-3σ (from UniProt P31947 1-248) (natural protein)
